Measurements from article PMC11802746 (Nature Communications, 2025).

Biological target: GST-MST3 (human, UniProt Q9Y6E0-2 1-431)
Experiment: pull-down

binding result: binds
B1: His-SUMO-tagged PGAM5 (25-289) (domain or fragment, human, UniProt Q96HS1 25-289, looked up)
chain: AVAVGKPRAGGDAEPRPAEPPAWAGGARPGPGVWDPNWDRREPLSLINVRKRNVESGEEELASKLDHYKAKATRHIFLIRHSQYHVDGSLEKDRTLTPLGREQAELTGLRLASLGLKFNKIVHSSMTRAIETTDIISRHLPGVCKVSTDLLREGAPIEPDPPVSHWKPEAVQYYEDGARIEAAFRNYIHRADARQEEDSYEIFICHANVIRYIVCRALQFPPEGWLRLSLNNGSITHLVIRPNGRVALRTLGDTGFMPPDKITRS
